The nature of the series: label from the status in PepcDB records.
For “MTDKTPWSLRSVGNPSPIEIAMMLLSLLSVIIVLVMTFGRLDKETYRLLFFIDTTICMIFMVNFFAGLFRARDKLFYLRHHWIDFIASIPAIEALRIARVFQILRVIRLIRMSRSFLIPLIKQRKQATLASLLVAMVTILTFASIIILIIESGTEGANIQTAEQAIWWALVTISTVGYGDFYPVSTAGHIVGGIVIVSGVSFFGVISGYMASVFVAPDESERQERQDAHKAEIKSELELALARMEENQRQMELNQAQMLTKIAELKQALEDKKG”, the protein production result is on record as “failed”.

For the sequence “MGFADFFKNFKINKLRTAPSKEEQPSHWVKCPKCYALMYHKEVFSKYSVCLKCHYHFRMKAAERIEFLCDVGSFEEFDKHLRPNDPLNFVDKESYKQRIKKYEKRTNRPSSVISGEAKINRMPLQIVVFDFSFMGGSLGSVEGEKIVRAINRAVAKREALLIVSASGGARMQESTYSLMQMAKTSAALNRLSEAKLPFISLLSDPTYGGVSASFAFLGDLIIAEPGAMIGFAGPRVIKQTIGADLPEGFQTAEFLLEHGLIDMIVHRKDLKKTLSDLIAMMTHKTSKIF”, the protein production entry was “failed”.

For the sequence “MGHHHHHHSHMTDPSKLAVAVVCSSNMNRSMEAHNFLAKKGFNVRSYGTGERVKLPGMAFDKPNVYEFGTKYEDIYRDLESKDKEFYTQNGLLHMLDRNRRIKKCPERFQDTKEQFDIIVTVEERVYDLVVMHMESMESVDNRPVHVLNVDVVDNAEDALMGAFVITDMINMMAKSTDLDNDIDELIQEFEERRKRVILHSVLFY”, the protein production entry is listed as “not failed”.

Turning to “RALRRRGGDAAAKLAGLVLIAPAPDFTEALMWKGFSPEIRAEIETKGVWHRPSEYGEPYPITKALIEDGRNHLVLDGMIEVGCPVRILQGKQDEDVPWRHAFELAERLPTDDVVLTMIQDGDHRLSRPQDIARMLAAVEE”, the protein production entry is listed as “failed”.

In the case of “MSSFSLAVRDSSTMLRRNLLHARRYPSLTLNLLLTPVMLLLLFVYIFGDTMSGGAGRSAYIAYIVPGILLMTIGSTTIGTAVSVSTDMNEGIIARFRTMAIHRSSVLFGHVAGSVLQAIMSVVLVGAVGVAMGFRSTDATVLEWLAAFGLLALFALAFTWIAVGMGLGSPNAEAASNNAMPLILLPLISSAFVPLDSMPGWFQPIAEYQPFTPAIETLRGLLLGTEIGNNWWIALAWCLGLTVLGHRWSKAQFNRDPK”, the protein production entry was “failed”.

Take “MRSQPTVSVIVPARNEAGNIAAAVERLPELGAETELIFVEGHSRDQTWETIEQTVAEYQGPLKLLACRQTGKGKADAVRLGFDKASGDILMILDADLTVQPEDLGHFYRAIASGRGEFINGSRLVYPRSRLAMPGLNTLANRTFALIFSFLLGQPLKDTLCGTKVLWKTDYDRVAAGRKYFGDFDPFGDFDLLFGAAKLGLEIVEVPVRYQERSYGSSNIAHVREGLILARMCLYAAGKLKFPLEHHHHHH”: the protein production entry is “failed”.

Regarding “MAAAAAAAAAAGAAGGRGSGPGRRRHLVPGAGGEAGEGAPGGAGDYGNGLESEELEPEELLLEPEPEPEPEEEPPRPRAPPGAPGPGPGSGAPGSQEEEEEPGLVEGDPGDGAIEDPELEAIKARVREMEEEAEKLKELQNEVEKQMNMSPPPGNAGPVIMSIEEKMEADARSIYVGNVDYGATAEELEAHFHGCGSVNRVTILCDKFSGHPKGFAYIEFSDKESVRTSLALDESLFRGRQIKVIPKRTNRPGISTTDRGFPRARYRARTTNYNSSRSRFYSGFNSRPRGRVYRGRARATSWYSPY”, the protein production entry was “failed”.

As for “MKLIVVTTPTFFVEEDKIITALFEEGLDILHLRKPETPAMYSERLLTLIPEKYHRRIVTHEHFYLKEEFNLMGIHLNARNPSEPHDYAGHVSCSCHSVEEVKNRKHFYDYVFMSPIYDSISKVNYYSTYTAEELREAQKAKIIDSKVMALGGINEDNLLEIKDFGFGGAVVLGDLWNKFDACLDQNYLAVIEHFKKLKKLADLEHHHHHH”, the protein production result is reported as “not failed”.

For the sequence “MEMMQDSFQVHRIPQSKYVDGVRWLPQASALNRFFATASYDADCDSSSIEIQSLDPNPRGNHNTNPLIESLSSWTSPSRVSSLEVAGNGGGGGSFKPMVSAATSSGSLHVLMIDLVEGAAIEEFYAAEGERFHVGRVEGVDWREGGECVTVGEDGRVNVVKIVNGEGLRYRKVFDGNGLVAYRAVKWASPTEFVTGGYGFGLQLWDQRKSGEAVSQLKGNWFQGKTSAIVHSIDIHPSRKHTCIAGGSSGTVFAWDLRWPQQPIVLSGVGASENINNPLSESEVWEVQYDSYTKSNVSSSRILPVMTCSEDGILGIIEQGEEPIELLAEPCAINSFDIDRQNPQDVICSLEWESIAVFSRP”, the protein production result is listed as “failed”.

Take “MRTTADRIRHTVGFELIGLLIFAPLASLVFGYALHQMGLVGAVASLIAAVWNYVYNILFDRGMLRFTGQLRKTPAIRVLHAILFEGGLLLVFLPSVAWYLDMTLLDAFIMDIAVAGFYMVYALVYNWVYDAVFPIPGLKAKEDSQPADCPSAN”: the protein production entry is “failed”.

For the sequence “MKDLLKWKFVETLDFLFDMDKYGRQMLFLQERGRMKLMEGFAVEFRGDGWDNDLASYCGKIVECSWDKEKKVWVSLRIRVDKSKPNGIGTGRSVIKCIEDDLTKEVLLKEIKEIILLP”, the protein production result is “not failed”.

In the case of “MSLEGLSINFATVRQGGNFGAIVDACLAHGITAISPWREQVHGVGLAEAARIVEQNGLRLSGHCRGGFFPAIDADGRRRAIEDNKRAVDEAAAMKADCLVLVVGGLPAGSRDLKGARQMVEDGMAKLLPYARAAGVPLAIEPLHPFYAAERACFNTLKQSLDLCDRLGAGTGVAIDVYHVWWDPELEEQVARAGRNGQILAHHICDWLVPTTDPLNDRGMMGDGVIDLKAFRAMIEAAGFHGPQEVEIFSHRWQARPMDEVLATVVERFKTVC”, the protein production entry is reported as “failed”.

Consider “ASLLARYPPEKLFQAERNFNAAQDLDVSLLEGDLVGVIKKKDPMGSQNRWLIDNGVTKGFVYSSFLKPYNPRRSHSDAS”, for which the protein production result is given as “not failed”.

“MASLGFNLGFTFSNAQIQQHRKVSGGGRARVISCNSSSSSSSQASSPQGISAVTPLEIELEFFGPKPGSDGSYPVDKAKAVSGDKLLRSIMQDNKIELYAAYGKVMNCGGGGSCGTCIVEILDGRDLLNERTDTENRYLKKKPESWRLACQTIVGNKENSGKSALDIGCRAADSTVEEVN”: the protein production entry is on record as “failed”.

As for “MAPTLQGQWIKVGQKGGTGPGPRSSHGIAAVGDKLYSFGGELTPNKHIDKDLYVFDFNTQTWSIAQPKGDAPTVSCLGVRMVAVGTKIYIFGGRDENRNFENFRSYDTVTSEWTFLTKLDEVGGPEARTFHSMASDENHVYVFGGVSKGGTMNTPTRFRTIEAYNIADGKWAQLPDPGDNFEKRGGAGFAVVQGKIWVVYGFATSIVPGGKDDYESNAVQFYDPASKKWTEVETTGAKPSARSVFAHAVVGKYIIIFAGEVWPDLNGHYGPGTLSNEGYALDTETLVWEKLGEEGAPAIPRGWTAYTAATVDGKNGLLMHGGKLPTNERTDDLYFYAVNSA”, the protein production entry is on record as “failed”.

With “MPKVSVVTGFYNRCEHLERTIESILNQTYSDFELIVFDDASTDGTASRLLELKEKYDDPRFRFIIHEENKGFVKGLSEAISGAKGQYIAVQGSGDVSLPRRLELQVEFLDANPSVGAVGGAIYNIQEDTGTRNPQRFEKPIATFDDLLTSNPFTHGEVMYRLDLYKSIGGYRSGFTFAQDRDLWLRMAKKADLGIIPDFLYHRYTLLDGVSFVPDKTIRQRCFSEAAVRLALMPEEEGALAYSRLEAEGPTAVVPIADRAVQKFVPKAAIRLCLYGAPETGLHMARDYIQNPLRRTIVVVLISIYSSRLIKPLQDILYKSIFKGVSISKPIKSSLVKFTRRIQGK”, the protein production entry is listed as “failed”.

Consider “MSYSVMFALLLLTPLLFSLLCFACRKRRLSATRTVTVLHSLGITLLLILALWVVQTAADAGEIFAAGLWLHIDGLGGLFLAILGVIGFLTGIYSIGYMRHEVAHGELSPVTLCDYYGFFHLFLFTMLLVVTSNNLIVMWAAIEATTLSSAFLVGIYGQRSSLEAAWKYIIICTVGVAFGLFGTVLVYANAASVMPQAEMAIFWSEVLKQSSLLDPTLMLLAFVFLLIGFGTKTGLFPMHAWLPDAHSEAPSPVSALLSAVLLNCALLVLIRYYIIICQAIGSDFPNRLLLIFGMLSVAVAAFFILVQRDIKRLLAYSSVENMGLVAVELGIGGPLGIFAALLHILNHSLAKTLLFCGSGNVLLKYGTRDLNVVCGMLKIMPFTAVLFGGGALALAGMPPFNIFLSEFMTITAGLARNHLLIIVLLLLLLTLVLAGLVRMAARVLMAKPPQAVNRGDLGWLTTSPMVILLVMMLAMGTHIPQPVIRILAGASTIVLSGTHDLPAQRSTWHDFLPSGTASVSEKHSER”, for which the protein production entry is “failed”.

In the case of “MKRSSPVILVSEDEYGKFDESTNSILVKGKMHHLGISRVIEPGDELIVSGKSFIVSDFSPMYFGRVIRRNTQIISEIDASYIIMRCGLRPGMDILEVGVGSGNMSSYILYALNGKGTLTVVERDEDNLKKAMDNLSEFYDIGNVRTSRSDIADFISDQMYDAVIADIPDPWNHVQKIASMMKPGSVATFYLPNFDQSEKTVLSLSASGMHHLETVELMKRRILVREGATRPASDDLTHTAFITFAIKKSGMVYRI”, the protein production entry was “not failed”.

Take “MKEQILEKLKTVKYPGFEKDIVSFNFVKDIKIQDDGVFIDIEIVSANPEVANEIRKNTIEALSSLALKNIELNIITPKIPEEKSNSRSGKNIAPQVKNFIMVSSGKGGVGKSTTTVNLAISMAKMGKRVGILDADIYGPNIPRMLGETKTQPEVVGQRLKPILTHGVYMMSMGVLIEEGQGLMWRGAMIMKAIEQLLADVIWPELDVLFLDMPPGTGDAQITSAQSIPIAAGVCVSTPQTVSLDDSKRALDMFNKLHIPIAGVIENMSGFLCPDNGKEYDIFGKGTAEDMAKAYKSEVLAQIPIEMIVREGGDEGKPVSFYHPESVSSKRYLMAAEKIWSFIEKINNEGGADNSAIQPVMNGKSACSHLEHHHHHH”: the protein production result is on record as “not failed”.

Take “MELRIMTGKLILLGFIIYQCVFSESDNLPWLVFSLLVYVCINLGIAILPKGKTKKLFIIISVIISIVSYAEVHPLFILFLPFTLCEGAADFGLPKWAVLAASIVPVLFINESISAVYALTAAFQFLLYWAASHDAARIEKLEHHIDQTRRDLQKLTNMLRENKEFIRQSEYTYKLEERNRLSQEIHDKIGHSMTGALIQLEAAKRVLDIDKEKASELLQNAINISKDGIENIRLTLKSVKPPSEQMGIHRLRLFIDECSAQYHMNISFLHKGDLDVISQIQWKIIFENITEALTNSVKYAEATHVSICIHVLNTLIKAEVKDNGKGRQKIKKGMGIIGMEERAASVNGKVIVDGSNGFSVTTLLPKHE”: the protein production entry was “failed”.

As to “ARQVTPGQVMVASTVGKLSALLAADLSDEQAQRLGLDTLLPLRESDGPTLFCFHPASGFAWQFSVLARYLSPRWSITGIQSPRPQGPMASAASLDEVCEHHLQTLLAQQPHGPYYLFGYSLGGTLAQGIAARLRQRGEAVAFLGLLDTWPPETQNWAEKEANGLDPEVLAEIDREREAFLAAQQGQASGELFSAIEGNYADAVRLLTTAHSAKFDGKATLFVAEKTRQEGMDPQVVWGPWVGELEVFSQNCAHVDIISPQAFEAIGPVVREILG”, the protein production entry was “not failed”.

Regarding “MTNHNNSGKKKVAILIEQAVEDTEFIIPCNGLKQAGFEVVVLGSRMNEKYKGKRGRLSTQADGTTTEAIASEFDAVVIPGGMAPDKMRRNPNTVRFVQEAMEQGKLVAAVCHGPQVLIEGDLLRGKQATGFIAISKDMMNAGADYLDEALVVDGNLITSREPGDLAIFTTAILSRLGYGGKDAALPDEKDRNAEWWKLADAWGGSTKGDIVRGLNTALGGERYSLEALEKYTEKESDVEAKALFQEMITNKQRHIEYLETYLTRLGEKPSLSANIANQYAKVKTALTGSDDIYQIRSALGDIQTGIGDIGNLCAMYTDPIATAIFKEIYKDLVKYEQRLVSLYRTRTNATVQPPKPTTGAAVSM”, the protein production result is given as “not failed”.

The record behind these values is a protein production outcome set (Wang et al. 2014).
